Publication PMC10641069, “Intra- and inter-molecular regulation by intrinsically-disordered regions governs PUF protein RNA binding” (Nature Communications, 2023)
Substitutions are numbered along the chain they refer to. Names and notes keep the numbering of the source. Values joined by “and” are separate entries in the source; they are usually repeats but may differ in a detail not shown here. Identical values can stand only once. “Also recorded” adds a separate entry of the source. Like-named read-outs stand apart in the source and are kept apart here.

What was measured:
FBF-2 RBD = biological target: T1, FBF-2 RBD (Caenorhabditis elegans, UniProt Q09312); assay type: binding, C. elegans; conditions: mean of two independent replicates, 20 °C, 20 mM HEPES pH 7.4, 150 mM NaCl, 0.5 mM TCEP, one-site model
T1 construct: The FBF-2 RBD protein (residue 164-575) was purified as described previously; His6-SUMO (N, cleaved yes); made in house; host or cells: E. coli BL21-CodonPlus (DE3)-RIL (host inferred: b50 says the procedure was otherwise the same as for RBD + CT)
T1 sequence (Q09312 whole entry, looked up): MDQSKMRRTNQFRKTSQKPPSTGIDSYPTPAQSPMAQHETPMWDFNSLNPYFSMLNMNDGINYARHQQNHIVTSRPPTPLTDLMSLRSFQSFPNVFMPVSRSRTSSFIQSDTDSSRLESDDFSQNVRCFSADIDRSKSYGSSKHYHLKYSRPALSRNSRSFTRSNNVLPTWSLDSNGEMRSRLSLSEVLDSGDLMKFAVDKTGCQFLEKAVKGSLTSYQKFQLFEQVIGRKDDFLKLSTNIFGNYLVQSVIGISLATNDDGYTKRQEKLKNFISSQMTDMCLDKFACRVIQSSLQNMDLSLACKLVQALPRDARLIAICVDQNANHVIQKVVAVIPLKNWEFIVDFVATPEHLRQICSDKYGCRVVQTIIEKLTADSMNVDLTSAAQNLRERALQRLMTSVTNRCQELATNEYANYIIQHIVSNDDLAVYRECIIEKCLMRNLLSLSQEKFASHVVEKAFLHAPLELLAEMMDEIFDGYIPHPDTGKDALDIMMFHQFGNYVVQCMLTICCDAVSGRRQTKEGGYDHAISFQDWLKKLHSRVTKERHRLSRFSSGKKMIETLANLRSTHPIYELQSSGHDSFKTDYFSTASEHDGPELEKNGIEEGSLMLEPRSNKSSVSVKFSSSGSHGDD
Description: To assess that idea, we investigated how the CT affects the protein interaction affinities of the FBF-2 RBD to LST-1 A and LST-1 B, using isothermal titration calorimetry (ITC, Supplementary Table 3). No RNA was included in these experiments.
Experiments were performed at 20 °C using a MicroCal PEAQ-ITC Automated (Malvern Instruments) with a 200-μL standard cell and a 40-μL titration syringe. FBF-2 and LST-1 variants were prepared in a buffer of 20 mM HEPES pH 7.4, 150 mM NaCl, and 0.5 mM TCEP by gel filtration. LST-1 (100–400 µM) was titrated from the syringe into the cell containing FBF-2 (10–30 µM) in 2 µl aliquots. Experiments were performed in duplicate due to the limitation of the amount of protein needed. Data were analyzed using the MicroCal PEAQ-ITC Analysis Software (version 1.40) provided by the manufacturer with the one-site model (Table S3).
Supplementary Table 3. Protein interaction affinities, stoichiometries, and thermodynamic parameters between FBF-2 CT/LST-1 variants and FBF-2 measured by ITC. Two technical replicates (n=2 independent experiments) were performed for each analysis with similar results, and the values are shown for each replicate. Source data are provided as a Source Data file. […]
RBD+CT LST-1 A none Not detected
RBD FBF-2 CT none Not detected
1 Reported previously 18.

[1] = biological target: FBF-2 RBD (Caenorhabditis elegans) (UniProt Q09312); test: ITC; conditions: cited from earlier work
C. elegans = conditions: animals expressing mutant FBF-2; unpublished; ref personal communication, Kimble lab; cited from earlier work
Text: Our previous structural and biochemical studies relied on FBF-2^164–575, a fragment with the RBD that lacks its intrinsically disordered C-terminal tail but retains its in vivo RNA-binding specificity (Fig. 1a)[17],[18],[36],[39],[40]. […] A worm strain that expresses truncated FBF-2 lacking the C-terminal 26 residues (607-632) was generated in an fbf-1 loss-of-function background. Approximately 11% of the mutant progeny were sterile due to failure to initiate oogenesis, indicating a germline defect. In contrast, worms expressing full-l ... || In the PUF hub, FBF-1 and FBF-2 play a more prominent role than PUF-3 and PUF-11[55]. FBF-1 and FBF-2 amino acid sequences are 91% identical and have largely overlapping functions. […] When the CT of FBF-1 is replaced with the FBF-2 CT, the chimeric protein produces a progenitor region that m ... || page 6: Reviewer #2 (Remarks to the Author): This manuscript uses structural and biochemical approaches to understand how partner proteins and intrinsically disordered regions (IDRs) impact RNA binding of FBF-2. The crystal structure of FBF-2 CT is novel and the proposed role of the CT in autoinhibition by intramolecular interaction with RBD is interesting. However, why this autoinhibition would be needed in vivo is less clear, especially in regard to the interaction with partner proteins. While the authors also mention this shortcoming, some attempt to address the biological consequences of t ...

FBF-2 RBD + CT L610A [2] = biological target: T2, FBF-2 RBD + CT L610A (C. elegans, UniProt Q09312 164-632, L610A); test: ITC; peptide (100–400 µM) titrated from the syringe into the cell containing FBF-2 (10–30 µM); 20 °C; 20 mM HEPES pH 7.4, 150 mM NaCl, 0.5 mM TCEP; no RNA; one-site model; mean of two replicates; conditions: both partners purified
T2 construct: source: E. coli, expressed and purified like wild type proteins; not shown: His6-SUMO, N-terminal, cleaved
T2 sequence (looked up): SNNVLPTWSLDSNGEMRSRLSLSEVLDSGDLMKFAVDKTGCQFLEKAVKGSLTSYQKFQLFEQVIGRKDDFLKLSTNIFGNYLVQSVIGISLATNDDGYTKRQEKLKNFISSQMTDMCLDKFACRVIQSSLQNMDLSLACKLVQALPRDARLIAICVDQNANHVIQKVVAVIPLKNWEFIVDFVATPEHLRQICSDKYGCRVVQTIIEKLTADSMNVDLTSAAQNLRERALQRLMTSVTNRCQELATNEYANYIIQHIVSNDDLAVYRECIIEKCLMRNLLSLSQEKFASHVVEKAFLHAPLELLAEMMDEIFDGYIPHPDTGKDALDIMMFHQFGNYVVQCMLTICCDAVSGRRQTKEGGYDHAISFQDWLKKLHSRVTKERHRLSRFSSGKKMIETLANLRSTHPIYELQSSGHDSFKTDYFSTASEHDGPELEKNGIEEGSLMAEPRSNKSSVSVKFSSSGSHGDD

[3] = biological target: T3, FBF-2 RBD + CT (FBF-2 residues 164-632) (C. elegans, UniProt Q09312 164-632); test: cell-based or functional assay
T3 sequence (looked up): T2 sequence (looked up) with A447L

FBF-2 RBD + CT L610A [4] = biological target: T4, FBF-2 RBD + CT L610A (C. elegans, UniProt Q09312 164-632, L610A); test: ITC
T4 sequence: T2 sequence (looked up)

[5] = biological target: T5, FBF-2 RBD (FBF-2 residues 164-575) (C. elegans, UniProt Q09312 164-575); test: ITC
T5 chain: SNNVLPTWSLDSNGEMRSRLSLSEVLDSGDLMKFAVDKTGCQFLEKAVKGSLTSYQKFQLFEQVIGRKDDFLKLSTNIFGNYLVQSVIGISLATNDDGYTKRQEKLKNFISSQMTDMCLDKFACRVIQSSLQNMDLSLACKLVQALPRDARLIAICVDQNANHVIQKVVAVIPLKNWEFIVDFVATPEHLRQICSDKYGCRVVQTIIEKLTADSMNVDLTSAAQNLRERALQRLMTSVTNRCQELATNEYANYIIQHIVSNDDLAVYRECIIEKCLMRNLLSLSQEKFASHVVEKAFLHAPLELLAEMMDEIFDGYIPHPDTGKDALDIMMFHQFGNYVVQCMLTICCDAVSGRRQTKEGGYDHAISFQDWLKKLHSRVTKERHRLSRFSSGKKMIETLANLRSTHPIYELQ

[6] = biological target: T5, FBF-2 RBD (FBF-2 residues 164-575); test: ITC

**Q.** With “FBF-2 CT L610A: FBF-2 CT (601-632) with L610A (NGIEEGSLMAEPRSNKSSVSVKFSSSGSHGDD)” as the molecule, how does the Kd (FBF-2 RBD) read?
**A.** No binding; also recorded: Not detected

**Q.** And the Kd (FBF-2 RBD; listed as CT peptide with L610A)?
**A.** No binding was detected

**Q.** For LST-1 B LST-1 B (from UniProt P91820), which Kd [1] is on record?
**A.** 0.05 µM

**Q.** Which Kd [1] does the source give for LST-1 A LST-1 A (from UniProt P91820) here?
**A.** 2.1 µM

B1: FBF-2 Y479A: FBF-2 Y479A expressed in animals (Kimble lab, unpublished) (protein, UniProt Q09312 1-632, looked up, variant Y479A)
Fem-3 mRNA-binding factor 2: T1 sequence (Q09312 whole entry, looked up) with Y479A
**Q.** For B1, which germline phenotype (C. elegans) is on record?
**A.** no defects were detected in germline stem cell self-; also recorded: defect in the sperm-to-oocyte switch

B2: FBF-2 L610A: FBF-2 L610A; attempts to generate animals were unsuccessful (protein, UniProt Q09312 1-632, looked up, variant L610A)
Fem-3 mRNA-binding factor 2: T1 sequence (Q09312 whole entry, looked up) with L610A
**Q.** Which germline phenotype (C. elegans) does the source give for B2 here?
**A.** dominant sterile

B3: LST-1 A peptide (LST-1 residues 19-50) (peptide, UniProt P91820 19-50, looked up)
chain: STIAYSKSQHEAPKQLLQLRSEIKPLIPLNQP
notes: The tag was cleaved with Ulp1 protease; also called LST-1^19–50; source: E. coli, purified (Ni-NTA, HiTrap Q flow-through, Superdex 75); not shown: His6-SUMO, N-terminal, cleaved
**Q.** Which results are given for B3?
**A.** Kd (FBF-2 RBD + CT L610A [2]): 2.4 µM; RNA-binding affinity of FBF-2 RBD + CT for gld-1 FBEa RNA by EMSA in the presence of 150 µM LST-1 A [3]: 3 fold; Kd (FBF-2 RBD + CT L610A [4]): 2.1 µM and 2.6 µM; Kd [5]: 2.13 µM and 2.02 µM; Kd [6]: 2.1 µM
